Assay results from US20090186824A1 (INIMEX PHARMACEUTICALS, published 2009).
Bridges are numbered along the chain shown (N, C = ends). Where no end group is shown, it is not given here. [ ]: non-standard residue; d: D form.

These binders were tested against dipeptidyl peptidase IV (DPPIV) in plasma of ICR mouse blood (mouse, UniProt P28843 37-760) (assay: cell-based or functional assay).
Sequence of dipeptidyl peptidase IV (DPPIV) in plasma of ICR mouse blood (P28843 37-760 limits assumed): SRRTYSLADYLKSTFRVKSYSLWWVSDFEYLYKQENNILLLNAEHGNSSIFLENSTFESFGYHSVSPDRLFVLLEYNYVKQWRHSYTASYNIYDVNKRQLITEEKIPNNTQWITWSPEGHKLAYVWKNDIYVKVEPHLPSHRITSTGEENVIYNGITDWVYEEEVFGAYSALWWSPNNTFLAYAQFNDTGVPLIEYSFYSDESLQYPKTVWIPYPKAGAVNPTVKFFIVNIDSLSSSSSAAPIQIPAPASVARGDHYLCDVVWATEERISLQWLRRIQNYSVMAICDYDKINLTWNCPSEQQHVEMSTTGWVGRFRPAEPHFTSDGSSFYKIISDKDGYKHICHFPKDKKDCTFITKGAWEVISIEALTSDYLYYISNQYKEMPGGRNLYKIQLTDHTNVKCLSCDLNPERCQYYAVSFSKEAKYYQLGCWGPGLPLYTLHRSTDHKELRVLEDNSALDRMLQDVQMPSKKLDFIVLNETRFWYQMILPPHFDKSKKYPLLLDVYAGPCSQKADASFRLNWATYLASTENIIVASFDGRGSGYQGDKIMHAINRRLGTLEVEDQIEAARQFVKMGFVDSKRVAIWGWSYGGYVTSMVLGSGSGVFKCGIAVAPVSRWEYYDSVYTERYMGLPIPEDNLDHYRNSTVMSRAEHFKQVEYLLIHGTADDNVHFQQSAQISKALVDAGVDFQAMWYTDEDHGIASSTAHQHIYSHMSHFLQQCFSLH

| Binder | % DPPIV Activity (Saline) |
| --- | --- |
| [code r][code r]VP-NH2 (not fully specified) [SEQ ID NO 62] | 51 % relative to saline control |
| CRIVPAC (disulfide 1-7; not fully specified (C-terminus)) [SEQ ID NO 32] | 30 % relative to saline control |
| Ac-KSRIVP-NH2 [SEQ ID NO 2] | 93 % relative to saline control |
